Biological target: meta-AAC0038^H168A (not stated (soil metagenome))
Assay: crystal structure

meta-AAC0038^H168A (enzyme) gave a stoichiometry N of 2.

Reference: publication PMC8956665, “Structural and molecular rationale for the diversification of resistance mediated by the Antibiotic_NAT family” (Communications Biology, 2022)
